Results taken from paper PMC11601375 (bioRxiv, 2024).

Biological target: T1, vacuolar Qa-SNARE Vam3 (yeast, UniProt Q12241 1-283)
T1 sequence: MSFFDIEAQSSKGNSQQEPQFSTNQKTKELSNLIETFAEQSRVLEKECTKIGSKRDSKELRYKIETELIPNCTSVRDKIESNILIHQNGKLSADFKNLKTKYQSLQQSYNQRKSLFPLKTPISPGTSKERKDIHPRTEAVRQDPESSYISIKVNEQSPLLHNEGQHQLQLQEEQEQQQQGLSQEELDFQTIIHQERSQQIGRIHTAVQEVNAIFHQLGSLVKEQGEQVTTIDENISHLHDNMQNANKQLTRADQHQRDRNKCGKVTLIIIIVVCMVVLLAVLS
Experiment: co-IP

binding result: binds
B1: vacuolar Qb-SNARE Vti1 (natural protein)
chain: MSSLLISYESDFKTTLEQAKASLAEAPSQPLSQRNTTLKHVEQQQDELFDLLDQMDVEVNNSIGDASERATYKAKLREWKKTIQSDIKRPLQSLVDSGDRDRLFGDLNASNIDDDQRQQLLSNHAILQKSGDRLKDASRIANETEGIGSQIMMDLRSQRETLENARQTLFQADSYVDKSIKTLKTMTRRLVANKFISYAIIAVLILLILLVLFSKFK
